Results as given in patent publication CN105542009A (UNIV NANCHANG, dated 2016).

Tests used:
[1] = target: T1, PSMA胞外区蛋白 (重组表达的前列腺特异性膜抗原膜外区) (UniProt Q04609 44-750); assay: indirect phage-ELISA, PSMA extracellular region coated at 5 μg/mL, HRP-anti-M13 detection
T1 construct: extracellular domain; also called PSMA蛋白; PSMA抗原; not shown: His tag from vector pRAG2a (purified by HisTrap, detected by anti-His antibody)

[2] = target: T2, 前列腺特异性膜抗原 (PSMA) on LNCaP cells (UniProt Q04609 1-750, limits assumed); assay: cell ELISA on fixed LNCaP (PSMA+) against MKN45 (PSMA-) cells, HRP-anti-M13 detection
T2 construct: whole, on cells; Endogenous PSMA on LNCaP cells; MKN45 cells (no PSMA) served as negative cells; also called prostate specific membrane antigen
T2 sequence (Q04609 whole entry): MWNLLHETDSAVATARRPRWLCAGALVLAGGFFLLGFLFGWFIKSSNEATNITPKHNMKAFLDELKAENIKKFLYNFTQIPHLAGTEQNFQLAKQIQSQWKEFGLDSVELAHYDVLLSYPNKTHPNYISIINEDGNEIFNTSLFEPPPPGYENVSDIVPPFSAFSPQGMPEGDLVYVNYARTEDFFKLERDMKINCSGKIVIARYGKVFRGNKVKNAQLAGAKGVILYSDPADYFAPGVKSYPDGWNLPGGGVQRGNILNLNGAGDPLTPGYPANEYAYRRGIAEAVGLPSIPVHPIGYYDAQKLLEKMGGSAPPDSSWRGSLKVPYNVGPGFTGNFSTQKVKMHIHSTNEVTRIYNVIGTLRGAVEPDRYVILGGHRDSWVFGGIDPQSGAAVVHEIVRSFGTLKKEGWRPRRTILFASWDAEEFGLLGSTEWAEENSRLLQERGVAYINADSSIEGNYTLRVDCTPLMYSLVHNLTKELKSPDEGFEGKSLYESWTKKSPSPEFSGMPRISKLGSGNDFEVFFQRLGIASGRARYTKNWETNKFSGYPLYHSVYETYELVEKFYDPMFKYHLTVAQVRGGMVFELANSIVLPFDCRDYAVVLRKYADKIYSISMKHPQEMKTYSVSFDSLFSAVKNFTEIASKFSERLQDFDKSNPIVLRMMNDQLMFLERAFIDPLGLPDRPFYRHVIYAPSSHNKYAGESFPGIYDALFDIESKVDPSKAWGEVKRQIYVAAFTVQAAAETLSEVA

T1 sequence (Q04609 44-750): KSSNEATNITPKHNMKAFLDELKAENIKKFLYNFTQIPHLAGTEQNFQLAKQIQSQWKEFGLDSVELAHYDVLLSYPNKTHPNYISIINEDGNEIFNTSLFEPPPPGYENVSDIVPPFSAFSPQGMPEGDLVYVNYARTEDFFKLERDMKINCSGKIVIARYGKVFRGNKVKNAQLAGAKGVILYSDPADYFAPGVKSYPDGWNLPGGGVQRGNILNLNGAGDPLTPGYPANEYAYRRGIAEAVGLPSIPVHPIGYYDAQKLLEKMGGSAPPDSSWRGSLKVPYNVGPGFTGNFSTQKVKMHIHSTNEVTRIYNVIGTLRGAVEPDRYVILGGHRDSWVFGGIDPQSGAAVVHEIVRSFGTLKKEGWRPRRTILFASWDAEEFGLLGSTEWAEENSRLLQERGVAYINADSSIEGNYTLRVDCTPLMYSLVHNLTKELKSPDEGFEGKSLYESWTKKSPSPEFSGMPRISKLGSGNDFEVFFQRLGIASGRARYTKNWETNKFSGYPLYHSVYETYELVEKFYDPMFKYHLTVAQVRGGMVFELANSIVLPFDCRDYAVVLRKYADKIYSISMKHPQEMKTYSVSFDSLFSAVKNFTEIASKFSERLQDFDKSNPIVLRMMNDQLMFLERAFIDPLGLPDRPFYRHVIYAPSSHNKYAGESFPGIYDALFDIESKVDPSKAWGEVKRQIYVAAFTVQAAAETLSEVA

B1: 抗前列腺特异性膜抗原单域重链抗体噬菌体阳性克隆 (VHH)
VHH: QVQLVESGGGLVQAGGSLRLSCAASGRTFSRRDMGWFRQAPGKEREFVASISRSSAYTNYADSVKDRFTISRDNAKNTVYLQMYNLKPEDTAVYYCAAANYSTTRASAYRYWGQGTQVTVSS
notes: also called 针对前列腺特异性膜抗原的单域重链抗体阳性克隆; 展示本发明所述纳米抗体的噬菌体克隆; not shown: the phage coat protein fusion and any linker or tag are not described
binding result [1]: binds | binding result [2]: binds
